{"source": "paper PMC11551761", "about": "“Probing the mechanism of nick searching by LIG1 at the single-molecule level”", "binders": {"B1": {"name": "nick DNA 3'-dG:C/5'-Bio (BLI) (dsDNA)", "DNA 1": "CATGGGCGGCATGAACCGGAGGCCCATCCTCACC", "DNA 2": "GGTGAGGATGGGCCTCCGGTTCATGCCGCCCATG", "modifications": "single nick"}, "B2": {"name": "34-mer single-nick DNA (Up-OH + Down / Template T) (dsDNA)", "DNA 1": "CATGGGCGGCATGAACCA", "DNA 2": "GAGGCCCATCCTCACC", "DNA 3": "B1 DNA 2 with C17T", "modifications": "5'-phosphate on Down; 3'-OH at nick"}}, "key": {"LIG1 full-length [1]": {"biological_target": "T1, LIG1 full-length (human, UniProt P18858 1-919)", "T1 sequence (P18858 whole entry)": "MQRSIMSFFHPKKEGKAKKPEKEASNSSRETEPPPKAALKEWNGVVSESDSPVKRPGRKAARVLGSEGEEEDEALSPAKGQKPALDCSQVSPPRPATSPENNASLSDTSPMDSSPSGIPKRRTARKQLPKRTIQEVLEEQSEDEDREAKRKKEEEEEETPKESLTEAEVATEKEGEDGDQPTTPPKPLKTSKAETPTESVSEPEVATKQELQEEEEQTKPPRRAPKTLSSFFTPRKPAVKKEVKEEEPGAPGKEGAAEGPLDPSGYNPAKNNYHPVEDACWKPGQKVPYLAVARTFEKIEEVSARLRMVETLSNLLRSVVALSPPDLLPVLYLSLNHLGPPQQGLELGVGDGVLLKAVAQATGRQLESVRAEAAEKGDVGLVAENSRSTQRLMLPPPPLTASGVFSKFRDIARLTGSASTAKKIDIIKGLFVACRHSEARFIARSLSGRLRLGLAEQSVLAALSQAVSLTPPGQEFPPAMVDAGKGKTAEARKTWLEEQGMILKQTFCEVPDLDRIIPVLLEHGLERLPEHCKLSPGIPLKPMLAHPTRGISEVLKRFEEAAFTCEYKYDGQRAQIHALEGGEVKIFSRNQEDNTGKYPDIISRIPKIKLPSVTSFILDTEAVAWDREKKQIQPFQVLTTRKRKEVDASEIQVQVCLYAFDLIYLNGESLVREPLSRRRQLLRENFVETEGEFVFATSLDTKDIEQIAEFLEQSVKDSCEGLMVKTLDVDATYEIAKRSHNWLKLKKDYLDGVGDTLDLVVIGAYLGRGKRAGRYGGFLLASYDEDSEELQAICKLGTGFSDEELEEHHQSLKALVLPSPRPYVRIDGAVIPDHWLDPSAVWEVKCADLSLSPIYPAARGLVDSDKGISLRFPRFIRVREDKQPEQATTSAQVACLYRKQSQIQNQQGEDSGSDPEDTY", "assay": "BLI; no Mg2+ listed in buffer; 1 mM HEPES pH 7.4, 20 mM NaCl, 0.02% BSA, 0.002% Tween 20 (BLI, C-Trap, TIRF; TIRF plus oxygen scavenger and 10 mM Trolox); BLI sensors hydrated at 20 C, assay", "conditions": "protein: recombinant; tags: 6xHis (pET-24b); AF488 or Cy5 labelled for single-molecule assays; Methods says 3'); nicked duplex"}, "LIG1 C-terminal": {"biological_target": "LIG1 C-terminal (human, UniProt P18858 261-919, del1-260)", "sequence (P18858 261-919, stated change not applied)": "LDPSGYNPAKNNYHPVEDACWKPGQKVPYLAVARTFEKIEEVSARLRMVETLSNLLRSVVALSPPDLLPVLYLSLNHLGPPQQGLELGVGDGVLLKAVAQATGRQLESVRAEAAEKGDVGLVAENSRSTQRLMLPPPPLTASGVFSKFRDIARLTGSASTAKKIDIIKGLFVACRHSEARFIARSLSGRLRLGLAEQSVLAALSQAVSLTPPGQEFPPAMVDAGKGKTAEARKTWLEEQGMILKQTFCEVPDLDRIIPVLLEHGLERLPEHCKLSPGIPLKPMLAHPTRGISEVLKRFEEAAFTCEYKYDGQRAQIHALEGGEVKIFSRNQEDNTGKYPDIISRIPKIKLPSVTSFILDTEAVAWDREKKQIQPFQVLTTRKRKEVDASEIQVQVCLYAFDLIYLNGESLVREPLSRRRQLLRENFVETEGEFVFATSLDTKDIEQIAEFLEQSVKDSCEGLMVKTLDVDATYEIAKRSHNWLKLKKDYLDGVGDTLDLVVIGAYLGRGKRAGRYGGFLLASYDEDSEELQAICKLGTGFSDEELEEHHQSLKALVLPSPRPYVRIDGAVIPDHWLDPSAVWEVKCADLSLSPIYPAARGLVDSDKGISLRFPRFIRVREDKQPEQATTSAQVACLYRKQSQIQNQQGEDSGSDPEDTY", "assay": "BLI; no Mg2+ listed in buffer; 1 mM HEPES pH 7.4, 20 mM NaCl, 0.02% BSA, 0.002% Tween 20 (BLI, C-Trap, TIRF; TIRF plus oxygen scavenger and 10 mM Trolox); BLI sensors hydrated at 20 C, assay", "conditions": "protein: recombinant; tags: 6xHis (pET-24b); AF488 or Cy5 labelled for single-molecule assays; Methods says 3'); nicked duplex"}, "LIG1 full-length [2]": {"biological_target": "T1, LIG1 full-length", "assay": "single-molecule TIRF; no Mg2+; bound lifetimes 0.9 s (70%), 8 s (30%); unbound 42 s; 1 mM HEPES pH 7.4, 20 mM NaCl, 0.02% BSA, 0.002% Tween 20 (BLI, C-Trap, TIRF; TIRF plus oxygen scavenger and 10 mM Trolox); BLI sensors hydrated at 20 C, assay", "conditions": "protein: recombinant; tags: 6xHis (pET-24b); AF488 or Cy5 labelled for single-molecule assays; label: 5'-biotin on Up; 3'-AF488 on Down; nicked duplex, blunt; nick between 18-nt Up and 16-nt Down on 34-nt template"}}, "note": "Positions count from the first letter of the chain named."}
{"binder": "B1", "values": [{"measurement": "Kd", "setting": "LIG1 full-length [1]", "result": 0.095, "unit": "µM"}, {"measurement": "Kd", "setting": "LIG1 C-terminal", "result": 0.196, "unit": "µM"}]}
{"binder": "B2", "values": [{"measurement": "binding result", "setting": "LIG1 full-length [2]", "result": "binds"}]}
